Test results taken from US20150175665A1 (IPSEN PHARMA S A S, published 2015).

T1: human recombinant GIP receptor (human, UniProt P48546 22-466)
T1 construct: whole, on cells; Assayed as washed membranes of CHO-K1 cells expressing the receptor; also called hGIP receptor
T1 sequence (looked up): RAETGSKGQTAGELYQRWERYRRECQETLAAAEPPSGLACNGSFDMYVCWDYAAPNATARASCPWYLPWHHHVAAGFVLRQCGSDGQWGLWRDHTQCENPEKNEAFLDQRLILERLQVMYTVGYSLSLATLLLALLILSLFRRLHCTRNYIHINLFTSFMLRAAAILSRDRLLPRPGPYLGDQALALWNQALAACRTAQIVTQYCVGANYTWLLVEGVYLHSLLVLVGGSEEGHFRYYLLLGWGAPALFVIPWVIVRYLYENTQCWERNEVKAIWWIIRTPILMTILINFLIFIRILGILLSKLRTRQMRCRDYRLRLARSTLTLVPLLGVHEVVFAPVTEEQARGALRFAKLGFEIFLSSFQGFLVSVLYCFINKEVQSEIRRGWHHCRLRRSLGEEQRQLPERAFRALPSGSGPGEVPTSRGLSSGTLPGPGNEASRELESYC

B1: (4Hppa^1, Aib^2, A5c^7, Nle^14)hGIP(1-30)-NH2 (peptide)
peptide: XXEGTFXSDYSIAXDKIHQQDFVNWLLAQK
modifications: 4Hppa (3-(4-hydroxyphenyl)propionic acid) at 1; Aib at 2; A5c at 7; Nle at 14; C-terminal amide

Molecular target: T1, human recombinant GIP receptor
Assay: displacement of [125I]GIP, membranes of CHO-K1 cells expressing human GIP receptor
Experimental: Membranes for in vitro receptor binding assays were prepared by homogenizing the CHO—K1 clonal cells expressing the human recombinant GIP receptor, with a Brinkman Polytron (setting 6, 15 sec), in ice-cold 50 mM Tris-HCl and then subjected to two centrifugations at 39,000 g for 10 minutes, with a resuspension in fresh buffer in between. For the assay, aliquots of the washed membrane preparations were incubated (100 minutes at 25° C. with 0.05 nM [¹²⁵1]GIP (2200 Ci/mmol) in 50 mM Tris-HCl, 0.1 mg/ml bacitracin, and 0.1% BSA. The final assay volume was 0.5 ml. The incubations were terminated by rapid filtration through GF/C filters (pre-soaked in 0.5% polyethylenimine) using a Brandel filtration manifold. Each tube and filter were then washed three times with 5-ml aliquots of ice-cold buffer.
Specific binding was defined as the total radioligand bound minus that bound in the presence of 1000 nM GIP.

| Ki | Binder |
| --- | --- |
| 1.24 nM | YXEGTFISDYXIAMDKIHQQDFVNWLLAQKGKKNDWKHNIXQ (3MeO-Tyr at 1; Aib at 2; A5c at 11 and 41) [(3MeO-Tyr^1, Aib^2, A5c^11, 41)hGIP(1-42)-OH] |
| 6.69 nM | YXEGTFISDYXIAMDKIHQQDFVNWLLAQKGKKNDWKHNIXQ (3OH-Tyr at 1; Aib at 2; A5c at 11 and 41) [(3OH-Tyr^1, Aib^2, A5c^11, 41)hGIP(1-42)-OH] |
| 3.4 nM | FXEGTFISDYXIAXDKIHQQDFVNWLLAQKGKKNDWKHNITQ (4NH2-Phe at 1; Aib at 2; A5c at 11; Nle at 14) [(4NH2-Phe^1, Aib^2, A5c^11, Nle^14)hGIP(1-42)-OH] |
| 26 nM | FXEGTFISDYXIAXDKIHQQDFVNWLLAQKGKKNDWKHNITQ (3,5F-Phe at 1; Aib at 2; A5c at 11; Nle at 14) [(3,5F-Phe^1, Aib^2, A5c^11, Nle^14)hGIP(1-42)-OH] |
| 31.1 nM | FXEGTFISDYXIAXDKIHQQDFVNWLLAQKGKKNDWKHNITQ (3,4,5F-Phe at 1; Aib at 2; A5c at 11; Nle at 14) [(3,4,5F-Phe^1, Aib^2, A5c^11, Nle^14)hGIP(1-42)-OH] |
| 0.73 nM | YXEGTFISDYXIAMDKIHQQDFVNWLLAQKGKKNDWKHNIXQ (Tyr(Ac) at 1; Aib at 2; A5c at 11 and 41) [[Tyr(Ac)^1, Aib^2, A5c^11, 41]hGIP(1-42)-OH] |
| 95 nM | FXEGTFISDYXIAXDKIHQQDFVNWLLAQKGKKNDWKHNITQ (4NH2CH2-Phe at 1; Aib at 2; A5c at 11; Nle at 14) [(4NH2CH2-Phe^1, Aib^2, A5c^11, Nle^14)hGIP(1-42)-OH] |
| 9.75 nM | XXEGTFISDYXIAMDKIHQQDFVNWLLAQKGKKNDWKHNIXQ (3-Pal at 1; Aib at 2; A5c at 11 and 41) [(3-Pal^1, Aib^2, A5c^11, 41)hGIP(1-42)-OH] |
| 8.14 nM | XXEGTFISDYXIAMDKIHQQDFVNWLLAQKGKKNDWKHNIXQ (4-Pal at 1; Aib at 2; A5c at 11 and 41) [(4-Pal^1, Aib^2, A5c^11, 41)hGIP(1-42)-OH] |
| 9.4 nM | XXEGTFISDYXIAXDKIHQQDFVNWLLAQKGKKNDWKHNITQ (Cpa (4-Cl-phenylalanine) at 1; Aib at 2; A5c at 11; Nle at 14) [(Cpa^1, Aib^2, A5c^11, Nle^14)hGIP(1-42)-OH] |
| 4.5 nM | YXEGTFISDYXIAMDKIHQQDFVNWLLAQKGKKNDWKHNIXQ (Tyr(Me) at 1; Aib at 2; A5c at 11 and 41) [[Tyr(Me)^1, Aib^2, A5c^11, 41]hGIP(1-42)-OH] |
| 11.2 nM | YXEGTFISDYXIAMDKIHQQDFVNWLLAQKGKKNDWKHNIXQ (3NO2-Tyr at 1; Aib at 2; A5c at 11 and 41) [(3NO2-Tyr^1, Aib^2, A5c^11, 41)hGIP(1-42)-OH] |
| 77.3 nM | XXEGTFISDYXIAXDKIHQQDFVNWLLAQKGKKNDWKHNITQ (hTyr at 1; Aib at 2; A5c at 11; Nle at 14) [(hTyr^1, Aib^2, A5c^11, Nle^14)hGIP(1-42)-OH] |
| 3.28 nM | XXEGTFISDYXIAMDKIHQQDFVNWLLAQKGKKNDWKHNIXQ (Taz at 1; Aib at 2; A5c at 11 and 41) [(Taz^1, Aib^2, A5c^11, 41)hGIP(1-42)-OH] |
| 2.7 nM | FXEGTFISDYXIAXDKIHQQDFVNWLLAQKGKKNDWKHNITQ (3F-Phe at 1; Aib at 2; A5c at 11; Nle at 14) [(3F-Phe^1, Aib^2, A5c^11, Nle^14)hGIP(1-42)-OH] |
| 7.05 nM | XXEGTFISDYXIAMDKIHQQDFVNWLLAQKGKKNDWKHNIXQ (3Thi at 1; Aib at 2; A5c at 11 and 41) [(3Thi^1, Aib^2, A5c^11, 41)hGIP(1-42)-OH] |
| 5.03 nM | YXEGTFISDYXIAXDKIHQQDFVNWLLAQKGKKNDWKHNITQ (3I-Tyr at 1; Aib at 2; A5c at 11; Nle at 14) [(3I-Tyr^1, Aib^2, A5c^11, Nle^14)hGIP(1-42)-OH] |
| 21.8 nM | YXEGTFISDYXIAXDKIHQQDFVNWLLAQKGKKNDWKHNITQ (3,5Br-Tyr at 1; Aib at 2; A5c at 11; Nle at 14) [(3,5Br-Tyr^1, Aib^2, A5c^11, Nle^14)hGIP(1-42)-OH] |
| 5.82 nM | FXEGTFISDYXIAMDKIHQQDFVNWLLAQKGKKNDWKHNIXQ (4F-Phe at 1; Aib at 2; A5c at 11 and 41) [(4F-Phe^1, Aib^2, A5c^11, 41)hGIP(1-42)-OH] |
| 77.9 nM | YXEGTFISDYXIAXDKIHQQDFVNWLLAQKGKKNDWKHNITQ (3,5I-Tyr at 1; Aib at 2; A5c at 11; Nle at 14) [(3,5I-Tyr^1, Aib^2, A5c^11, Nle^14)hGIP(1-42)-OH] |
| 5.43 nM | FXEGTFISDYXIAMDKIHQQDFVNWLLAQKGKKNDWKHNIXQ (3F-Phe at 1; Aib at 2; A5c at 11 and 41) [(3F-Phe^1, Aib^2, A5c^11, 41)hGIP(1-42)-OH] |
| 14.4 nM | FXEGTFISDYXIAMDKIHQQDFVNWLLAQKGKKNDWKHNIXQ (4CN-Phe at 1; Aib at 2; A5c at 11 and 41) [(4CN-Phe^1, Aib^2, A5c^11, 41)hGIP(1-42)-OH] |
| 3.18 nM | HXEGTFISDYXIAXDKIHQQDFVNWLLAQKGKKNDWKHNITQ (Aib at 2; A5c at 11; Nle at 14) [(His^1, Aib^2, A5c^11, Nle^14)hGIP(1-42)-OH] |
| 7.52 nM | FXEGTFISDYXIAMDKIHQQDFVNWLLAQKGKKNDWKHNIXQ (3OH-Phe at 1; Aib at 2; A5c at 11 and 41) [(3OH-Phe^1, Aib^2, A5c^11, 41)hGIP(1-42)-OH] |
| 0.6 nM | YXEGTFISDYXIAXDKIHQQDFVNWLLAQKGKKNDWKHNITQ (3Br-Tyr at 1; Aib at 2; A5c at 11; Nle at 14) [(3Br-Tyr^1, Aib^2, A5c^11, Nle^14)hGIP(1-42)-OH] |
| 0.42 nM | YXEGTFISDYXIAXDKIHQQDFVNWLLAQKGKKNDWKHNITQ (3Cl-Tyr at 1; Aib at 2; A5c at 11; Nle at 14) [(3Cl-Tyr^1, Aib^2, A5c^11, Nle^14)hGIP(1-42)-OH] |
| 4.26 nM | YXEGTFISDYSIXXDKIHQQDFVNWLLAQKGKKNDWKHNITQ (3,5Br-Tyr at 1; Aib at 2 and 13; Nle at 14) [(3,5Br-Tyr^1, Aib^2, 13, Nle^14)hGIP(1-42)-OH] |
| 12.6 nM | B1 |
